Data from the supplement of paper PMC12764529.
± gives the half width of the 95% confidence interval.

Tests used:
[1] = folding stability dG unfold from chymotrypsin proteolysis; higher = more stable
Protocol: (§1)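 Folding stability of de novo designed mini-proteins (<80 aa, no Cys; designed by TrROS, TrMRF, ProteinMPNN and the joint model) was measured by cDNA display proteolysis with trypsin and chymotrypsin. Each protease was used at 11 concentrations in a threefold dilution series plus a no-protease condition. K50 was inferred by Bayesian fitting of sequencing counts, and dG unfold was derived against a sequence-predicted unfolded-state K50 (Tsuboyama et al. method). Sequences shown include variable-length N-terminal GS-type padding (SAGGSAGG...) inside a display construct carrying a PA tag. Rows were kept only if the AF2 dimer inter-PAE was >15, to exclude likely homo-oligomers.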

[2] = folding stability dG unfold (combined trypsin and chymotrypsin); higher = more stable
Protocol: as §1

## SAGGMKTSPIGTFPLPDPSNGALADTVTIENPKEIIKKSNKEIVKVTVTTTAPDGTPTTTDEIIIIKNSAGG [r13_735_JUSTAS]
[1]
  folding stability dG unfold: 0.548 ± 0.066 kcal/mol
[2]
  folding stability dG unfold: 0.148 ± 0.3 kcal/mol

## SASLTPVGPGPDSVVTADPSTGKLYRLEPADGRLTVTTTTFAPGPAAPAPTTTTLPLSPEEAAALRALLSAG [r14_245_JUSTAS]
[1]
  folding stability dG unfold: -0.304 ± 0.26 kcal/mol
[2]
  folding stability dG unfold: < -1 kcal/mol

## SAGGSAGGSAGGSWMRMEAEVRHPNKRDVTIPIPYRSKDGEPDMKERAKEFARELAKDYSAGGSAGGSAGGS [r4_168_TrROS]
[1]
  folding stability dG unfold: -0.315 ± 0.21 kcal/mol
[2]
  folding stability dG unfold: < -1 kcal/mol

## VSPLDLEGPGGLPPSELRRVSVLREETDPSVGEKRLSPVGTLFVPKDTSPEEVEAIIAARPDITRVEVRLLS [r1_132_JUSTAS]
[1]
  folding stability dG unfold: 0.502 ± 0.067 kcal/mol
[2]
  folding stability dG unfold: 0.0944 ± 0.082 kcal/mol

## SAGGEPRLGRVLLDIDIAVDPERAEREEDREEALERALEIAERAEARLRELDPDVPVVVNIRLLDVGSAGGS [r8_183_TrMRF]
[1]
  folding stability dG unfold: 0.576 ± 0.031 kcal/mol
[2]
  folding stability dG unfold: 0.31 ± 0.17 kcal/mol

## SAGGSAGGSAGGPIKIKHNDGVEITIPADNVRSVDTNPGPGYIKITFPGNGQEFQIPIDSAGGSAGGSAGGS [r10_200_TrROS]
[1]
  folding stability dG unfold: 0.00978 ± 0.031 kcal/mol
[2]
  folding stability dG unfold: -0.306 ± 0.12 kcal/mol

## SAGNPSLKLKTETQVEVTEVSESVLPDGGYTLTKSKFTVTTTIYDTTKPKVLSTETTEETETVATPLVSAGG [r19_136_JUSTAS]
[1]
  folding stability dG unfold: 0.442 ± 0.11 kcal/mol
[2]
  folding stability dG unfold: 0.0701 ± 0.07 kcal/mol

## SAGGSAGGSAGMRLLVEKPEGPVPTVTEVEVPLPEGDKARLEEVKEELKKKGYKKVIFLDSAGGSAGGSAGG [r11_196_JUSTAS]
[1]
  folding stability dG unfold: -0.417 ± 0.37 kcal/mol
[2]
  folding stability dG unfold: < -1 kcal/mol

## SAGGSAGGSGMVTVKRTVPPGNVEEAVNALTPPNLTITDVKVTELPDSVEVTVTVEDPFPGLVSAGGSAGGS [r12_445_JUSTAS]
[1]
  folding stability dG unfold: 0.587 ± 0.034 kcal/mol
[2]
  folding stability dG unfold: 0.0193 ± 0.12 kcal/mol

## SAGGSAGGSAGGPVIPKDVKVKVIFSNGEVAELEVDSVDDLQKKLNVPIPPNVNLVVSRGSAGGSAGGSAGG [r7_223_TrMRF]
[1]
  folding stability dG unfold: -0.759 ± 0.37 kcal/mol

## SAGGSAGGSALPPGEPVEFPWRIKMGGEEHDVKRTVYRDPDGNVKLNIEIPMPPGNFEIEPVSAGGSAGGSA [r18_428_TrROS]
[1]
  folding stability dG unfold: 0.206 ± 0.22 kcal/mol
[2]
  folding stability dG unfold: -0.451 ± 0.4 kcal/mol

## SAGGSAGGSAEKDVKLLDVEELEEERVALVEFPVDPKVVRIKFDKDMTIDEIKKKAKELAGSAGGSAGGSAG [r3_142_TrMRF]
[1]
  folding stability dG unfold: 0.523 ± 0.03 kcal/mol
[2]
  folding stability dG unfold: 0.0889 ± 0.15 kcal/mol

## SAGGSAGGSAGRTIMIPPNQTAEEAVNHLKEELPPGNKNVTINYWDGDGEWEKFEIEVKKSAGGSAGGSAGG [r17_215_TrROS]
[1]
  folding stability dG unfold: -0.616 ± 0.44 kcal/mol
[2]
  folding stability dG unfold: < -1 kcal/mol

## SAGMDEYIRELIEKLPSENPSTSPITYRDKNIEAVTYYPSTNTTTFHFPGGEVISASPSTSIEEILKELSAG [r14_59_JUSTAS]
[1]
  folding stability dG unfold: 0.198 ± 0.22 kcal/mol
[2]
  folding stability dG unfold: -0.193 ± 0.19 kcal/mol

## SAGGSAGGSMVVTERSVRPVPRLVRTSDPSTGSSSVHLDPGAVETVRVIEEPPTPELLANTGASAGGSAGGS [r20_172_JUSTAS]
[1]
  folding stability dG unfold: -1.36 ± 0.33 kcal/mol
[2]
  folding stability dG unfold: < -1 kcal/mol

## SAGGSAGGSAGGSDSSVITFDIPVSEYPAKIKLSPETKTMTVVSTSPEGTVKVAIERPGSAGGSAGGSAGGS [r10_352_JUSTAS]
[1]
  folding stability dG unfold: -0.297 ± 0.14 kcal/mol
[2]
  folding stability dG unfold: -0.889 ± 0.48 kcal/mol

## SAGGSAGGSAGGEPDPKFHVEYDEEEGRYKVKIYNPNNNKKEEIEVPVPPGQPKEEAIKSAGGSAGGSAGGS [r10_676_TrROS]
[1]
  folding stability dG unfold: 0.0247 ± 0.11 kcal/mol
[2]
  folding stability dG unfold: -0.269 ± 0.27 kcal/mol

## SAGGSAGGSAGKLKVEIEERNGKLVLKVKLELEPEPEPVEVEKKVEVKTETKMSLEELKKSAGGSAGGSAGG [r17_51_TrROS_Hall]
[1]
  folding stability dG unfold: 0.952 ± 0.058 kcal/mol
[2]
  folding stability dG unfold: 0.471 ± 0.096 kcal/mol

## SAGGKKKKREIEIQIPVPDEEMKKNGMDPSEFAEELAKELQSLLPPGFEDIDLDVEPHPNGWPRIKIESAGG [r13_271_TrROS]
[1]
  folding stability dG unfold: -0.281 ± 0.043 kcal/mol
[2]
  folding stability dG unfold: -0.724 ± 0.3 kcal/mol

## SAGGMEEIRELLREGKIDEVVERLKELGYEDVKITPIPDKPVVKIEVVRYDPVTGKPTKFTLTIPLEPSAGG [r13_359_TrMRF]
[1]
  folding stability dG unfold: 5.27 ± 0.11 kcal/mol
[2]
  folding stability dG unfold: 5.67 ± 0.32 kcal/mol

## SAGGSAGGSAGGAAEVLEALRAARGQPVVVLVKDPAGNEREVTVPGDTARFPGWTVVELLSAGGSAGGSAGG [r7_998_JUSTAS]
[1]
  folding stability dG unfold: 0.739 ± 0.11 kcal/mol
[2]
  folding stability dG unfold: 0.341 ± 0.17 kcal/mol

## SALEPGEWRKVTAEIPLPGGPLKLEIYEWPSNGHYYADIRNPGNGRPVEIPFPFDTPDDAVDEAKDFIRSAG [r14_65_TrROS]
[1]
  folding stability dG unfold: 0.101 ± 0.4 kcal/mol
[2]
  folding stability dG unfold: -0.625 ± 0.63 kcal/mol

## SAGGVIGTRKKVNKIEKPVPEGATTTPSIIGNTTILTTTAPDGSTVTVTLTKTEPIPGKPDVSEKYEASAGG [r13_804_JUSTAS]
[1]
  folding stability dG unfold: 0.11 ± 0.042 kcal/mol
[2]
  folding stability dG unfold: -0.265 ± 0.12 kcal/mol

## SAGSSRIIFYPENNTYLIETPEGSFTLPETVTTTTPAPTGENPDRTVPRPTTTYVATELSLEEAEKLLSSAG [r5_234_JUSTAS]
[1]
  folding stability dG unfold: 0.367 ± 0.051 kcal/mol
[2]
  folding stability dG unfold: -0.149 ± 0.076 kcal/mol

## SAGGSAGGSAGSSSFIRKGKDGSRITATPSPSYITISTFPLKGGGIVPSTKTTTLPPSLLSAGGSAGGSAGG [r11_88_JUSTAS]
[1]
  folding stability dG unfold: -0.915 ± 0.45 kcal/mol
[2]
  folding stability dG unfold: < -1 kcal/mol

## SAGPLEELLARAERVEEDPSTGKRLVYTSDPELVRAALAEGAPDYTLTESPDDRRSALINFPPLPPGVLSAG [r14_115_JUSTAS]
[1]
  folding stability dG unfold: 0.32 ± 0.14 kcal/mol
[2]
  folding stability dG unfold: -0.0125 ± 0.14 kcal/mol

## SAGGSAGMKNVVKPVAPGTSMTLKVTKPDGTPRTLTFPPNYTATVKTLPEGGKDEIISLEPVPPELSAGGSA [r15_82_JUSTAS]
[1]
  folding stability dG unfold: -0.82 ± 0.53 kcal/mol
[2]
  folding stability dG unfold: < -1 kcal/mol

## SAGGSAGGSAGGSMKTTTLTVKPEELEEVKKKLTPPDKTVTIKSVTKDPKEDLVTLTVESAGGSAGGSAGGS [r10_1030_JUSTAS]
[1]
  folding stability dG unfold: -0.517 ± 0.59 kcal/mol
[2]
  folding stability dG unfold: -0.923 ± 0.65 kcal/mol

## SAGGSAGGSAGGSMVITIEYTGSVEDLIKKLKEEGLDVKVLEVKFDPKTGKYTVTLEVKSAGGSAGGSAGGS [r4_315_JUSTAS]
[1]
  folding stability dG unfold: 4.22 ± 0.2 kcal/mol

## SAGDIEIEVEELGEGYKKITIRIKVDSIEEAIKEVEEIVRDFFSEEAEIVEIKIDPEKGIVEAVVIVPESAG [r5_810_TrMRF]
[1]
  folding stability dG unfold: 3.39 ± 0.4 kcal/mol

## SLEELAKAIAEKLGLPVEDVEVRVEKEVDEETGEERLRVTVLIKVDGKTYLIEIDLETGEIVEIKPLEDLSA [r9_1219_TrROS_Hall]
[1]
  folding stability dG unfold: 4.68 ± 0.23 kcal/mol

## SAGGSAGGSAGGKTITLDELRENFPPGYQIRDNNGKQHRINANEPIEEGDPIEIVSKDDISAGGSAGGSAGG [r7_507_TrROS]
[1]
  folding stability dG unfold: -0.206 ± 0.17 kcal/mol

## SAGGSAGGSAGGGSVHMPPLINWQEEEFEYESEEPVHIKRLVYKHPYSNEVEEEIEILLSAGGSAGGSAGGS [r10_881_JUSTAS]
[2]
  folding stability dG unfold: < -1 kcal/mol

## SAGGSAGGRIRDPDGNPFKIKKVEPQPSPNGQPMIKFRYPDNGKEHTIPRDNLPPWLPDNAKPVSAGGSAGG [r6_371_TrROS]
[2]
  folding stability dG unfold: < -1 kcal/mol

## SAGGSAGGSAIKIPPGYWVRGEFPNVTRHIPIDDIDELKKTFPGNPIRDIEVYDPEDGKPISAGGSAGGSAG [r3_134_TrROS]
[2]
  folding stability dG unfold: < -1 kcal/mol

## SAGGSAGGSAGGGKVKSIELNPETDLALVEIEPEDGGTATVVLPLDLLENIPLDGTLTISAGGSAGGSAGGS [r10_255_TrMRF]
[2]
  folding stability dG unfold: < -1 kcal/mol

## SAGIVIPFEELKEFMSDEEIEDIAREFAQDNGYPPKKIEIEPHPNPGDWITIKAEPDNGNKAPIVFRLPSAG [r5_745_TrROS]
[2]
  folding stability dG unfold: < -1 kcal/mol

## SAGGSAGGSASMRTITITSSTSPSGPPLPAAELAAELAKEGYTVTDPRRVPAEGKLVFTVVASAGGSAGGSA [r18_466_JUSTAS]
[2]
  folding stability dG unfold: < -1 kcal/mol
